The text below walks through data of patent US20020086014A1 (Bristol-Myers Squibb, published 2002).

The target in test [1] is T1, purified recombinant human CTLA-4 (human, UniProt P16410 36-161, limits assumed).
T1 construct: also called purified CTLA-4; purified recombinant CTLA-4
T1 sequence (looked up): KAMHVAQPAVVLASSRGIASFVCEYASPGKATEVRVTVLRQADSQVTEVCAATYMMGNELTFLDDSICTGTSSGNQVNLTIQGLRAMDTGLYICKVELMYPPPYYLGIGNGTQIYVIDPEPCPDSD
As to the kind of experiment: competitive ELISA on CTLA-4: unlabelled IgG 0-6666 ng/ml against biotin-labelled BNI 3.1.

The target in test [2] is T1, purified recombinant human CTLA-4. As to the kind of experiment: competitive ELISA on CTLA-4: unlabelled IgG 0-6666 ng/ml against biotin-labelled 3A4. A general note: ELISA stands for enzyme-linked immunosorbent assay.
In test [3] the target is human CTLA-4 expressed on cells (human) (UniProt P16410). As to the kind of experiment: flow cytometry (FACScan), cell line expressing recombinant CTLA-4, FITC-anti human IgG. (In general: Flow cytometry measures light scatter and fluorescence of single cells or particles in a stream.)
A further test has as its target macaque CTLA-4 (macaque). Described as above.
The next test addresses murine CTLA-4 (murine) (UniProt P09793). The test is described as above.

Chain of murine CTLA-4 (murine) (P09793 36-223): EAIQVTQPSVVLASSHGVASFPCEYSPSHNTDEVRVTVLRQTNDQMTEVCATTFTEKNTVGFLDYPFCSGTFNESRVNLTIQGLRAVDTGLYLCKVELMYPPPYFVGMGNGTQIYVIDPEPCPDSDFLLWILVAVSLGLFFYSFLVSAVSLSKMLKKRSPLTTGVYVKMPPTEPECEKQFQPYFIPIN

With BNI3 (antibody), the IC50 (read off the curve) in test [1] worked out at 0.5 µg/mL; in test [2] it was 0.09 µg/mL.

On to isotype control (Table 5) (antibody), for which the MFI in test [3] is 3 MFI; with macaque CTLA-4 (macaque) it was 4 MFI; in the test with murine CTLA-4 (murine) it was 5 MFI.

B1: 1E2 (antibody, V domains shown)
VH: QVQLVESGGGVVQPGRSLRLSCAASGFTFSSYGMHWVRQAPGKGLEWVAVIWYDGSNKYYADSVKGRFTISRDNSKNTLYLQMNSLRAEDTAVFYCARAPNYIGAFDVWGQGTMVTVSS
VL: DIQMTQSPSSLSASVGDRVTITCRASQGISSWLAWYQQKPEKAPKSLIYAASSLQSGVPSRFSGSGSGTDFTLTISSLQPEDFATYYCQQYNSYPPTFGQGTKVEIK
notes: Human anti-CTLA-4 monoclonal antibody
As for B1, the “IC50 (read off the curve)” value in test [2] was roughly 0.2 µg/mL.
